In series [1] the target is T1, SRF (serum response factor) (UniProt Q9JM73 Q9JM73:1-504).
T1 sequence: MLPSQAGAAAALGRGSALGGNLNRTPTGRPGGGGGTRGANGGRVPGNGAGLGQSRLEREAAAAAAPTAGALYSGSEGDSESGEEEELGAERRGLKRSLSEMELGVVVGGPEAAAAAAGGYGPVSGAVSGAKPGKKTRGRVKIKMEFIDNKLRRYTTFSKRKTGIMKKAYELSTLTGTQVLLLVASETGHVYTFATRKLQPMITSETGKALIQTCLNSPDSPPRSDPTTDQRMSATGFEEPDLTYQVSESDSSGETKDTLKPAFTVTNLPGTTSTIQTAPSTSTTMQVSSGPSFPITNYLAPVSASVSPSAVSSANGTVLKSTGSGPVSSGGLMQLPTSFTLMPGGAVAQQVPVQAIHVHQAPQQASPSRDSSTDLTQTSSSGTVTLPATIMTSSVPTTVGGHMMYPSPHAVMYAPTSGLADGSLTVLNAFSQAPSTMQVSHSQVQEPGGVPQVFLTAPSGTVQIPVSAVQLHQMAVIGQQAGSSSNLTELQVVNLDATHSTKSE
The experiment in a line: competition; cold mutant competitor; competition with WT or mutant probe indicates specificity of band.

Series [2] deals with T1, SRF (serum response factor). The experiment in a line: EMSA; radiolabeled probe; cold WT competition. On the technique in general: Mobility shift assays separate free from complexed probe on a gel.

B1: miR-143/145 enhancer SRF site mutant (dsDNA)
DNA 1: GGGAGCAGCCTTGCTACCGAAGGGCAGG
DNA 2: CCTGCCCTTCGGTAGCAAGGCTGCTCCC
As for B1, in series [1], the binding result is recorded as “no binding”.

B2: miR-143/145 enhancer SRF site (CArG) WT (dsDNA)
DNA 1: GGGAGCAGCCTTGCCATATAAGGGCAGG
DNA 2: CCTGCCCTTATATGGCAAGGCTGCTCCC
Turning to B2, in series [2], the binding result is listed as “binds”.

(Values after patent publication US20120093789, “Methods of Modulating Smooth Muscle Cell Proliferation and Differentiation” (published 2012).)
